Usually EC50 (read off the curve) stands for the concentration needed to bring the measured effect to its halfway point. A lower EC50 (read off the curve) goes with an effect from little substance.

For test [1], the target named is T1, human CD38 expressed on multiple myeloma cells (KMS11, MM1.S) (human, UniProt P28907 1-300).
T1 construct: whole, on cells; Naturally expressed on KMS11 and MM1.S cell lines; a CD38 knock out MM.1S line served as negative control
T1 sequence (looked up): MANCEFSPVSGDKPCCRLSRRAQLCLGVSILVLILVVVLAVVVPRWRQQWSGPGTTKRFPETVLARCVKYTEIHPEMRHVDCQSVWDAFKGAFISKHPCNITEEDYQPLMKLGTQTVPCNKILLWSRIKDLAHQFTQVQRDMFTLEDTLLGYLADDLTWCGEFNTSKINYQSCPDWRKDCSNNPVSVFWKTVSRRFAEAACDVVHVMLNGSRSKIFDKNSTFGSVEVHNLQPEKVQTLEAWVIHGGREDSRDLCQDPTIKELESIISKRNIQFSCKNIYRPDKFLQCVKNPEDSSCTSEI
The test can be described thus: flow cytometry on KMS11 wt cells. A general note: In flow cytometry, cells or beads pass a laser one at a time.

Test [2] addresses T1, human CD38 expressed on multiple …. In words: flow cytometry on MM.1S wt cells.
For another test, the target named is T2, human CD38 protein (human, UniProt P28907 43-300).
T2 sequence (looked up): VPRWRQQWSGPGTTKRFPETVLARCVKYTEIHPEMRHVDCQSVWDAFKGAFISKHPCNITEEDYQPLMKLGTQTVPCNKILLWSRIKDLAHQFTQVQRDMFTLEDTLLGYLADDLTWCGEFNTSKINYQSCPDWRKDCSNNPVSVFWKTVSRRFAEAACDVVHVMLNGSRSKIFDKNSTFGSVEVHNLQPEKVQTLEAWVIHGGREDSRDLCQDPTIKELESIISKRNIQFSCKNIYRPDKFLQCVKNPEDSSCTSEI
In words: ELISA, plate coated with human CD38 protein, absorbance at 650 nm. On the technique in general: An ELISA detects its analyte on a solid surface through an enzyme-linked reagent.

Experimental for human CD38 protein: Binding of the humanized antibody to human CD38 was tested. The ELISA plate was coated with 0.1 mg/well of human CD38 protein. 1t antibody (humanized anti-aNKp46 antibody or humanized anti-CD38 antibody) was added at 0.1 mg/well. Secondary antibody was diluted 1:7500. After addition of Streptavidin-HRP and TMB substrate the optical absorbance was measured at 650 nm.

B1: NKE2 with wild type (WT) Fc (bispecific antibody, human IgG1, kappa)
heavy: not shown
light 1: DIVMTQSPATLSLSPGERATLSCRASQSISDYLHWFQQKPHESPRLLIKYASQSISGIPARFSGSGSGSDFTLTISSLEPEDFAVYYCQNGHSFPLTFGPGTKVDIKRTVAAPAVFIFPPSDEQLKSGTASVVCLLKNFYPREAKVQWKVDNALQSGNSQESVTEQDSKDSTYSLSSTLTLSKADYEKHKVYACEVTHQGLSSPVTKSFNRGEC
light 2: DIQMTQSPSSLSASVGDRVTITCRASENIYSFLAWYQQKPGKAPKLLIYNTKTLTEGVPSRFSGSGSGTDFTLTISSLQPEDFATYYCQHHYGIPLTFGGGTKVEIKRTVAAPSVFIFPPSDEQLKSGTASVVCLLNNFYPREAKVQWKVDNALQSGNSQESVTEQDSKDSTYSLSSTLTLSKADYEKHKVYACEVTHQGLSSPVTKSFNRGEC
notes: Tetravalent IgG1-like tandem-Fab molecule: anti-CD38 Fab, linker, humanized 09 anti-NKp46 Fab, hinge, IgG1 Fc; also called NKE2 WT; NKE2 WT-Fc
Regarding B1, the “EC50 (read off the curve)” value is about 0.2 µg/mL in test [1] and about 0.3 µg/mL in test [2].

B2: NKE2 with mutant null Fc (bispecific antibody, human IgG1, kappa, L234A L235A)
heavy: not shown
light 1: B1 light 1
light 2: B1 light 2
notes: As NKE2 WT but with IgG1 L234A/L235A Fc; also called NKE2 Mut Fc (Fc silent); NKE2 MUT
Regarding B2, the entries for the concentration for a half-maximal effect (EC50 (read off the curve)) in test [1] and in test [2] were about 0.2 µg/mL and about 0.3 µg/mL, respectively.

B3: humanized anti-CD38 antibody (antibody, V domains shown)
VH: QVQLVQSGAEVKKPGASVKVSCKASGYTFTSYWMQWVRQAPGQGLEWMGAIYPGDGDTRYTQKFKGRVTMTRDTSTSTVYMELSSLRSEDTAVYYCARERTTGAPRYFDVWGQGTLVTVSS
VL: DIQMTQSPSSLSASVGDRVTITCRASENIYSFLAWYQQKPGKAPKLLIYNTKTLTEGVPSRFSGSGSGTDFTLTISSLQPEDFATYYCQHHYGIPLTFGGGTKVEIK
notes: also called CD38-IgG1 L234A, L235A; CD38-IgG1 wildtype
With B3, in the test with human CD38 protein, the binding result is listed as “binds”.

Values taken from US20240199756A1 (CYTOVIA THERAPEUTICS, published 2024).
